Test results reported in patent publication US20110305629A1 (published 2011).
Blank lines part the entries; values can stand above or below the binder they belong to.

Target: T1, soluble αvβ6 (UniProt P06756 31-992; P18564 22-709, Biotinylated in the blocking ELISA of FIG. 7; the biotin sites are not stated.)
T1 alpha: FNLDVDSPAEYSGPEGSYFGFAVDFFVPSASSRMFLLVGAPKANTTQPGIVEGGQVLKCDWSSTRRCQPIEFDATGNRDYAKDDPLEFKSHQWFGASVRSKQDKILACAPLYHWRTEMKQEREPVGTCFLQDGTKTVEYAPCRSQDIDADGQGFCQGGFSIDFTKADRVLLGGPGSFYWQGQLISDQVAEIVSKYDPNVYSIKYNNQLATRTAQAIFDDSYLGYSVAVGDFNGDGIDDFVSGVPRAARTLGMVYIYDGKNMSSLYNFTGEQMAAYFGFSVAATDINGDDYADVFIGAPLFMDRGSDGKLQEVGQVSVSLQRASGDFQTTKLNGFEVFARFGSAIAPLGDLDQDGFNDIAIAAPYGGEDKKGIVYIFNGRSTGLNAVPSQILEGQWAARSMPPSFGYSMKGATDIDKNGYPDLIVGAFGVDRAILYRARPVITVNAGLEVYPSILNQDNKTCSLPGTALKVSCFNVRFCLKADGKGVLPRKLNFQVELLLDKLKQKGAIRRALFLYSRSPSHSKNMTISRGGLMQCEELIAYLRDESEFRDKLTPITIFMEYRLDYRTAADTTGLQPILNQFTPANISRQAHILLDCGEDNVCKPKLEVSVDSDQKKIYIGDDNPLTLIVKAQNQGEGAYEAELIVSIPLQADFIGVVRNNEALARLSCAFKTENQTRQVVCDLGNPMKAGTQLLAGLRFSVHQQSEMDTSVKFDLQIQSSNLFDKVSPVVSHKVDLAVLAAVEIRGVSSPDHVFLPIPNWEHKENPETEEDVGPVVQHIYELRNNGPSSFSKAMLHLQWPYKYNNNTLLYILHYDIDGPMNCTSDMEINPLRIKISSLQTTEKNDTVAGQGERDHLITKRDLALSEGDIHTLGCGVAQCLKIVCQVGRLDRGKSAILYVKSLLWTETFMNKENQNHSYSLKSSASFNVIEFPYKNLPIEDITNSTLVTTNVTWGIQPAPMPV
T1 beta: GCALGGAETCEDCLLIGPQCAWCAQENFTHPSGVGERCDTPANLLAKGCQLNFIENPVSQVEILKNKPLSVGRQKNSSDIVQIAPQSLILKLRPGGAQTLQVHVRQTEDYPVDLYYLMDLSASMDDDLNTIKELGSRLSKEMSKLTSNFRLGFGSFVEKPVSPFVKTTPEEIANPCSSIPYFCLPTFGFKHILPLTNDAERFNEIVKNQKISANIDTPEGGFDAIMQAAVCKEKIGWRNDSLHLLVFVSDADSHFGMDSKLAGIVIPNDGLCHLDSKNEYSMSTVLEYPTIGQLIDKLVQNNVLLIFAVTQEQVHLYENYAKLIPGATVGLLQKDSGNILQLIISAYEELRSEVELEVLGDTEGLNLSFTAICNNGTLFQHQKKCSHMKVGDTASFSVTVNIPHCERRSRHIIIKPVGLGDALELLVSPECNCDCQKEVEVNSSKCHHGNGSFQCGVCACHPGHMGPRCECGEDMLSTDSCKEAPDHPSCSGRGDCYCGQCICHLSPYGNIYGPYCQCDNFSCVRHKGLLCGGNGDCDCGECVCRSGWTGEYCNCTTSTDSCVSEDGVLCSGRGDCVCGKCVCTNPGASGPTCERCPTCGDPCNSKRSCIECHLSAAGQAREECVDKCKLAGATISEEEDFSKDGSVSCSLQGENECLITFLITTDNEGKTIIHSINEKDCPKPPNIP
Assay: binding ELISA

EC50: 0.036 mg/L
B1: chimeric 3G9 antibody (ch3G9) (antibody, V domains shown)
VH: EVMLVESGGGLVQPGGSLRLSCAASGFTFSRYVMSWVRQAPGKGLEWVASISSGGRMYYPDTVKGRFTISRDSAKNSLYLQMNSLRAEDTAVYYCARGSIYDGYYVFPYWGQGTLVTVSS
VL: DIVLTQSPATLSLSPGERATLSCRASQSVSTSSYSYMYWYQQKPGQAPRFLIKYASNLESGIPARFSGSGSGTDFTLTISSLEPEDFAVYYCQHNWEIPFTFGGGTKVEIK

EC50: 0.043 mg/L
B2: chimeric 3G9 antibody containing a N to S substitution within the N-linked glycosylation site in the first CDR of the light chain (ch3G9S) (antibody, V domains shown)
VH: B1 VH
VL: B1 VL
